Laboratory results reported in PMC9519731, “The soluble form of CD160 acts as a tumor mediator of immune escape in melanoma” (Cancer Immunology, Immunotherapy : CII, 2022).

Target: the molecule itself
Assay: immunoprecipitation, non-reducing SDS-PAGE and Western blot; culture supernatants of confluent melanoma cell lines immunoprecipitated with H3 mAb, SDS-10% PAGE under non-reducing condition, blot with HRP-coupled H3 mAb

B1: soluble form of CD160 (sCD160) released by melanoma cell lines (natural protein, UniProt O95971 25-159, looked up)
chain: GCINITSSASQEGTRLNLICTVWHKKEEAEGFVVFLCKDRSGDCSPETSLKQLRLKRDPGIDGVGEISSQLMFTISQVTPLHSGTYQCCARSQKSGIRLQGHFFSILFTETGNYTVTGLKQRQHLEFSHNEGTLS
notes: soluble form of CD160, derived from the CD160-GPI isoform, released by human melanoma cell lines; recovered as a 55-kDa species called dimeric sCD160; also called secreted sCD160; sCD160 produced by WM1361; source: endogenous, culture supernatant of melanoma cell lines (WM1361, COLO829, SKMEL5)
- stoichiometry N: 2
